The results in this text go back to publication PMC3821029.

Usually Km stands for the substrate concentration at which the rate is half of its maximum.

Substrate in this series: CO[C@H]1O[C@H](COS(=O)(=O)O)[C@@H](O[C@@H]2O[C@@H](C(=O)O)[C@@H](O[C@H]3O[C@H](COS(=O)(=O)O)[C@@H](O[C@@H]4O[C@H](C(=O)O)[C@@H](O[C@H]5O[C@H](COS(=O)(=O)O)[C@@H](O)[C@H](O)[C@H]5NS(=O)(=O)O)[C@H](O)[C@H]4O)[C@H](OS(=O)(=O)O)[C@H]3NS(=O)(=O)O)[C@H](O)[C@H]2OS(=O)(=O)O)[C@H](O)[C@H]1NS(=O)(=O)O
The experiment in a line: purified protein, by the assay type. Conditions: pH 5.0.

B1: Recombinant human heparanase (Homo sapiens) (protein)
chain 1: KKFKNSTYSRSSVDVLYTFANCSGLDLIFGLNALLRTADLQWNSSNAQLLLDYCSSKGYNISWELGNEPNSFLKKADIFINGSQLGEDFIQLHKLLRKSTFKNAKLYGPDVGQPRRKTAKMLKSFLKAGGEVIDSVTWHHYYLNGRTATKEDFLNPDVLDIFISSVQKVFQVVESTRPGKKVWLGETSSAYGGGAPLLSDTFAAGFMWLDKLGLSARMGIEVVMRQVFFGAGNYHLVDENFDPLPDYWLSLLFKKLVGTKVLMASVQGSKRRKLRVYLHCTNTDNPRYKEGDLTLYAINLHNVTKYLRLPYPFSNKQVDKYLLRPLGPHGLLSKSVQLNGLTLKMVDDQTLPPLMEKPLRPGSSLGLPAFSYSFFVIRNAKVAACI
chain 2: QDVVDLDFFTQEPLHLVSPSFLSVTIDANLATDPRFLILLGSPKLRTLARGLSPAYLRFGGTKTDFLIFDPKKE
B1: the Km stood at 3.6 ± 0.5 µM.
